From FireProtDB (doi:10.1110/ps.03220403) come the findings set out here.

Broadly, the Tm is the temperature at which the thermal transition is half complete.

For this series the following is noted: pH 8, Thermal, CD, Bis-Tris propane ammonium acetate 0.05 M 0.05 M, reversible: No, whole UniProt chain shown.

B1: wild type, O00095 (protein)
chain: MKFLQVLPALIPAALAQTSCDQWATFTGNGYTVSNNLWGASAGSGFGCVTAVSLSGGASWHADWQWSGGQNNVKSYQNSQIAIPQKRTVNSISSMPTTASWSYSGSNIRANVAYDLFTAANPNHVTYSGDYELMIWLGKYGDIGPIGSSQGTVNVGGQSWTLYYGYNGAMQVYSFVAQTNTTNYSGDVKNFFNYLRDNKGYNAAGQYVLSYQFGTEPFTGSGTLNVASWTASIN
For the protein B1, the Tm (Hypocrea jecorina) stood at 54.4 °C.

B2: wild type, Q8NJY3 (protein)
chain: MLKSALLLGAAAVSVQSASIPTIPANLEPRQIRSLCELYGYWSGNGYELLNNLWGKDTATSGWQCTYLDGTNNGGIQWSTAWEWQGAPDNVKSYPYVGKQIQRGRKISDINSMRTSVSWTYDRTDIRANVAYDVFTARDPDHPNWGGDYELMIWLARYGGIYPIGTFHSQVNLAGRTWDLWTGYNGNMRVYSFLPPSGDIRDFSCDIKDFFNYLERNHGYPAREQNLIVYQVGTECFTGGPARFTCRDFRADLW
As for B2, the Tm (Trichocladium griseum) worked out at 68.7 °C.
